Assays:
[1] = target: CKK domain of mouse CAMSAP3/Marshalin-Ld (CKK1 or CKK2, not told for this experiment) (UniProt Q80VC9); test: GST pull-down; details: n = 4; parent: est. 1.0; read off a plot
[2] = target: CAMSAP3/Marshalin-Ld, V5-His tagged (mouse) (UniProt Q80VC9)
[3] = target: CKK1, CKK domain construct of mouse CAMSAP3/Marshalin-Ld (residues 1020–1253) (mouse)

Substance: GST-CDH23-C_1–67 (first 67 residues of mouse CDH23-C; CKK binding motif, CBM) R55H
- response (relative intensity) [1]: 0.65

Substance: GST-tagged CDH23-C1 (mouse cadherin 23, C isoform, subtype 1) (natural protein)
- decrease of the percent of OK cells with type III (long strings) CAMSAP3/Marshalin-Ld pattern on co-expression of CDH23-C1-GFP, against GFP (54.1% type III), 24 hours after co-transfection [2]: 21.3%
- percent of OK cells with CKK1-induced MT bundles, CKK1 (V5-His) co-expressed with CDH23-C1-GFP, 44 to 68 hours after transfection (19.9% with GFP) [3]: 5.5%

Substance: GST-tagged CDH23-C2 (mouse cadherin 23, C isoform, subtype 2) (natural protein)
- decrease of the percent of OK cells with type III (long strings) CAMSAP3/Marshalin-Ld pattern on co-expression of CDH23-C2-GFP, against GFP (54.1% type III), 24 hours after co-transfection [2]: 20%
